The data set can be described thus: label from the status in PepcDB records.

For the sequence “MTKPSRPDAPGDGRPRRLPGVARCRRDAAGHPPAHRLRWLQLLIWLVPMLAALVSIGLVAGQVRGHGPAITLGFQDGEGIEPGKTPVRYNDVDIGMVTAVRLSTDLSRVLVTVQLNQEAADFATHGTRFWIVRPRAGMSGASGLGTLLSGTYIGADSGGSHEPETQFTGLENPPVVSLRQQGARFVLRGPSLGSVETGSPVYYRHVEVGQVTGTALDKDGAGVTIDVFIEAPYHRYVGRDTQWRHASGLGLRLDAAGLRVNAESFQTMLLGGIAFQPSPGQPAGDAVPDGTVFGLQSGDLDAADGPDGKPSTVVMHFDQSLHGLSVGAAVDFRGVQLGEVTNVGVAFDPKTHTFVMPVTLNLYPDRLGQAFRASSEYGDAAAGKALLRTLVARGLRGQLRTGNLLTNQLYVALDMFPNAPPVQLDLNGTLIALPTIPNTLDDLQAQVADLAKTLDRVPLDQLGTHLGQRLDNARRLFALTDAQLAPQARATLAAARQAFDAAQAIAQSPLLRPADLSRVREQLGQTLRALDTLTDTVAQHPESLVWGPAVDTRTAQSP”, the protein production result is listed as “failed”.

With “MTKQFHCVTVGNPNAGKSTLFNALTGANQQVGNWSGVTVEKKTGHFTLNGADVYLTDLPGIYDLLPAGNSCDCSLDEQIAQQYLAEQRVDGIINLVDATNIERHLYLTAQLRELSIPMVVVLNKIDAAIKRGICVDLTKMSQELGCPVIGVCSRDPADVAKVQAQVLDLLQGRVSEAPLLLDYDKQIEAGVQLLCRKDPNLSRGRALAMLGNGSGCGSCKNAQLQDEVNTCTQQIAQQGHDIEVMVATTRFNFVERVFQSSVKADGFLTLSDKLDKLVLHPVLGIPVFLFVMYLMFMFSINIGSAFIDFFDVFAGALLVDHFGALLTNIGAPAWVVTILAGGVGQGIQTVSTFIPVIAALFLGLSILESSGYMARAAFVVDGLMRRIGLPGKAFVPMIVGFGCSVPAIMATRTLGSERERIVTGMMAPFMSCGARLPVYALFAAAFFPDSGQNLVFLLYVIGIFAAIGTGLLLRSTLLPGTSSAVVMELPSYELPKFKAVMVRTGKRTKSFILGAGKTIVLVVTLLNFINAIGVDGSFGHEDSQASLLSVASQKVTPIFAPMGIEQDNWPATVGIITGIFAKEAVVGTLNSLYTNATPEGSELTPLADSFNEALATIPANLFGLDLEDPLKLSVGDVSNTEVAAETQGVATSTFSALQSGFTTKVAAFSYLLFILLYTPCVAAMGALVNEFGTRWATFAATWTFALAYGSATVVYQAATFAAHPLQSSLWIGFFLVALVMFYLWLKRKGRRTQQIIPGVRIITE”, the protein production entry is listed as “failed”. Take “MTKTALVLGTVATLAVASVAAPAPAEARNGIGPFIGGLAAGALIAGVASNAYAYGPGYGYYGGGPYYGGGPYYGYAPRYVGYYGGPAYYGGGYGWGGPRYYRPRPVYYGYRSYYRPYRGGYYGAPVIRAGYGPGWGGHRHWHHHRHW”: the protein production result is “failed”. In the case of “MTKTFKTLDDFLGTHFIYTYDNGWEYEWYAKNDHTVDYRIHGGMVAGRWVTDQKADIVMLTEGIYKISWTEPTGTDVALDFMPNEKKLHGTIFFPKWVEEHPEITVTYQNEHIDLMEQSREKYATYPKLVVPEFANITYMGDAGQNNEDVISEAPYKEMPNDIRNGKYFDQNYHRLNK”, the protein production result is “not failed”. Turning to “MTKTLVIIAHPDMARSRVNAAWAEALRRAGDITLRDLSALYPDGMIDGAVERSLLEAHDRIILQFPLTWYSCPPILSAWQIAILTRGWAYGPGGRALRLKTLGVALSTGSNGRDYQPDGRYGRTLEDVTVPFELMARHTGMHYLPPFTLTGVRECDDAAVAASARAYLDHVRTAKPRILASGRDDDRARTVYPLEAGAR”, the protein production result is listed as “failed”. For “MTKVNPYAAGARGLCPHCGEGYLFDGFLKVAPRCEACGFELGKHETGDGAATFVILIAGAICAFGALFSMFAWNWPVWVSLVVWLPAVVAISLGLMRPAKGLMVAAQIAQKASEAGRDHV”, the protein production result was “failed”. Turning to “MTLAALCQGVLERLDPRQPGRQLVALSGAPGSGKSTLSNPLAAALSAQGLPAEVVPMDGFHLDNRLLEPRGLLPRKGAPETFDFEGFQRLCHALKHQERVIYPLFDRARDIAIAGAAEVGPECRVAIIEGNYLLFDAPGWRDLTAIWDVSIRLEVPMADLEARLVQRWLDHGLNHDAAVARAQGNDLANARAIEAARLPADLTWPQA”, the protein production result is recorded as “not failed”. With “MTLATRTVILPGGLQATLVHQPQADRAAALARVAAGSHHEPSRFPGLAHLLEHLLFYGGERYQDDDRLMGWVQRQGGSVNATTLARHSAFFFEVAADALADGVARLQEMLQAPLLLREDIQREVAVIDAEYRLIQQHEPSRREAAVRHAASAPAAFRRFQVGSADALAGDLAALQAALGDFHRTHYVARRMQLWLQGPQSLEALGELAARFAAGLAAGEPPPPAPPLRLGEFTALQLAVSSQPALWRCPLIALSDNVTLLREFLLDEAPGSLMASLRQRRLAGDVALNWLYQDRYLGWLALVFASDRPEEVDRQITHWLQALQQTTPEQQQHYYQLSRRRFQALSPLDQLRQRAFGFAPGAPPAGFADFCAALQAAPSVSLACQTVSPGEPVATQGFSLPLSRWRRRPESDPALAFAFYPQAAGDLVAKCPEKAAPLLHLPLPEEPPRLLLRPPFYCSPDQAEGLARGEQLRPLLAALRHAGGHGEWHLFDGSWQLTLQLPEPGRRPEAILQAILRQLALPVASLTPPPESIAIRHLMAQLPERLGTSGHQKGWLAALAGGSAEDAQWVARQLSLITAPVNPPMPAPAPCRRGVERLVYPGGDTALLVFIPLPDGASLAALRLLAQHCEPLFFQRLRVEQQIGYVVSCRYQRVADRDGLLMALQSPDRRAGELLRCGKDFLRQLAPMDEATFRPLQQRLAAQNRASRPPEARALSALRQEYGLPELTPQAVDALRVAEVADLAREMTRRRRRWQVLFTTGD” the entry was “failed”; with “MTLDPTPALSALRSGDFRTVQKLARRALKLAKGDPGWLNLAAIAESGLGRPKAALPHFQLALKLAPDFHDARRNLAQTLVILGRLDEAERHLQQLTGTNPQDAEAWALLSQAAMGRGDGDAALAAADRYVDLRPGQARGLMLRATLHGRLGDEAAALADLQQAQMAEPDNVDLLIALSLPLARADHPGAAIDVARRAVELAPRHIPARLTLAMRHVEQGDSDAAKAMYHRVLEIAPDQAEALEQLAHLNDAAENQRLAPQVQTALKTAEAGSLDKAQLHFALARIAAQSADDDGLARNLTRANATMARLMPYDAGADTRLSEALMARFAPGADCDGPGDGPAPFYVLGLPRSGTSLTEAVLGAHPVVHPLGERIAPGRLLAPLIDGGLPFDAQARAAFRKGEAASLPALPEGTRFYTDKMPENYRLVGFLLAARGDARVIHLRRDPRDVALSLWQAHLAGSALNYAYDLGAMAHRFNLYARMMAHWRAIFPDRILDLPYEELVADVTRASQRLAEWLGLVWDPEMARPERSTSQILTLSASQLRQPVHTRSVGKWRKHEAMLAPFIAGLDPGLWPELGQSGI”, “failed”. With “MTLEIRPAVPADAEQILAFIIELADYERARHEVVTDVEGIRRSLFAEGSPTRALMCLSEGRPIGYAVYFYSYSTWLGRNGIYLEDLYVTPEYRGVGAGRRLLRELAREAVANDCGRLEWSVLDWNQPAIDFYRSIGALPQDEWVRYRLDGEALRKMAE” the entry was “not failed”; with “MTLELLQAQAQNCTACRLMEGRTRVVFGEGNPDAKLMIVGEGPGEEEDKTGRPFVGKAGQLLNRILEAAGIPREEVYITNIVKCRPPQNRAPLPDEAKICTDKWLLKQIELIAPQIIVPLGAVAAEFFLGEKVSITKVRGKWYEWHGIKVFPMFHPAYLLRNPSRAPGSPKHLTWLDIQEVKRALDALPPKERRPVKAVSQEPLF”, “not failed”. Consider “MTLGSQHSPLFALVQETLRKRILSGAYAQGERLVEGDLAEEMGVSRIPVREALRALAAAGLVRIEPRRGASVASLSPEHARDIVEVRATLEALNARLAAQRRNPQQVADMDRAIRDGAHACERGDTAALVEQNRHFHELLGGVSTNAVLQDLMRSLRDRTALLFARNSVTRAADILDEHAGILQAVTAGDADLASLLAARHVHNAAQWYFERPVDRKAVAADTD”, for which the protein production entry was “failed”. Consider “MTLPQTMKAAVVHAYGAPLRIEEVKVPLPGPGQVLVKIEASGVCHTDLHAAEGDWPVKPPLPFIPGHEGVGYVAAVGSGVTRVKEGDRVGIPWLYTACGCCEHCLTGWETLCESQQNTGYSVNGGYAEYVLADPNYVGILPKNVEFAEIAPILCAGVTVYKGLKQTNARPGQWVAISGIGGLGHVAVQYARAMGLHVAAIDIDDAKLELARKLGASLTVNARQEDPVEVLQRDIGGAHGVLVTAVSNSAFGQAIGMARRGGTIALVGLPPGDFPTPIFDVVLKGLHIAGSIVGTRADLQEALDFAGEGLVKATIHPGKLDDINQILDQMRAGQIEGRIVLEM”, for which the protein production result is reported as “not failed”. With “MTLSIAHLGPPGTYAEQAAVLYVNWLTKSTGDEATLSPYPTISQSLHAVADGQAHLAVVPVENSIEGSVTTTLDALWQLDSLRIQLALVLPIVHTLISCASGLDKIETVYSHPQALAQCQGWLERFLPTVQIVPSNSTTEALQRLEQETTTAAIASSRAAQLYNLPILATGINDYPENCTRFWVVSQGEADAGYQTSKVPTSHTSLAFSMPANTPGALVKPLQIFAQLGINLSRIESRPTKRSLGEYLFFMDLEADVKESQMQSALAELTIHTEILKILGAYNVLPIGAFT” the entry was “failed”; with “MTLSSTTAPLDQPIPQATADAFCALTGDDQWIHIDPARAEAEGLAGGDTVLPGALLLSLAVGGLGKALGYPEGTRSWQRSYERVRFLRPAPVGSRLRLEARESRRRPAGTGREVVVANVSLYSDLVEAGPVMEGCFTSLLEVAVQPDTAE”, “failed”.

In the case of “MTLSTINPMKKSRIDNIHHTQILFFSDENQIDQEAPYYDALLDLEKDYPEQIDKMKVYDKKEGWEDEIETVPTLMVVDQRHVVVKIEGCVKKKEDIIKPLQHVLSKLEHHHHHH”, the protein production result is on record as “not failed”. Regarding “MTLTDISLAQAFISIPQDVIALDLSNNLLGSKSCVDLLVNIADCIPAGVTSLDLSSNGLRLTQVSLVTPKHVTSLNLCFNPLHEISIDGLEWLKDSLAHIQIIYLSYDMVNNMSREQRQAFRAVIPNIQTIILVDKNGKEIGPSHTAKIANLISELGGGNPEVPSLEHHHHHH”, the protein production entry was “failed”. With “MTLTKITAGKDDPDTGFAIATYNIHSCLGTDGAFRPDRVAQAIRALDADVIGLQEVGWALRGPSGFDQFAFLERETGYTVIPGLVRHHANAHFGNAILSRHPVESVAPLDLSLPYHSPRGGIDARIRVKGRSVRLINVHLGLIPLERRIQIRRIGLRLLDGWRGPALVCGDLNHWRRTSPAMQRLHRLLPGGVTGQTYPSALPTMMFDRILATGDLHLENHQVIRTEGTRVASDHLPLMAWFRFEGADVLSEDAA” the entry was “failed”. Consider “MTMIKGYSEKVEKIYSKLRKTEEDNLKSRREEIKDKLPKIIKIDSEISRLCLKLSTNIFKKINNRDEYIKSLKNEITNLRMERSELLVSNGYPMDYLQMHYNCSKCKDTGYIGAHKCSCYKKYLVQLYYDNSDLKSLLNENNFENFNINYYSNRKSEDEPRTPRKNMEKILSLSLNYIKNFSDSNENLLFYGNSGTGKTFLSHCIAKDLLERGFLVIYKTSADLAQELKQLQFEPNPTLEDLIINCDLLIIDDLGTEQISAFSKTCFFNLINKKLLSQKKMLISSNYNLEELTRLYSERITSRLFGDFTLCKFYGDDIRINRNLKNKKI”, for which the protein production entry was “failed”.

The values are drawn from a protein production outcome set (Wang et al. 2014).
